system: Escherichia coli TOP10; experiment: shrunken log2 fold change of peptide-encoding DNA abundance (4.5 h post-induction vs induction); higher = less antimicrobial activity (less host growth inhibition); conditions: time post-induction: 4.5 h; library: site-saturation at positions 5, 18, 19, 20
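Note: peptides expressed intracellularly from a pBAD plasmid library in pooled LB shake-flask culture, induced with 0.3% L-arabinose, DNA abundance read by NGS, three biological replicates, DESeq2 with apeglm shrinkage.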

Sequence	shrunken log2 fold change
RRIRERPPRLPRPRPRPPRAPRP	0.453
RRIRSRPPRLPRPRPRPLLEPRP	0.243
RRIRPRPPRLPRPRPRPSGFPRP	0.241
RRIRYRPPRLPRPRPRPQPSPRP	0.0385
RRIRMRPPRLPRPRPRPRASPRP	1.08
RRIRKRPPRLPRPRPRPDVWPRP	0.679
RRIRRRPPRLPRPRPRPGGQPRP	0.175
RRIRFRPPRLPRPRPRPHHGPRP	0.000407
RRIRFRPPRLPRPRPRPDPSPRP	-0.323
RRIRMRPPRLPRPRPRPTLHPRP	0.294
RRIRERPPRLPRPRPRPTLHPRP	-0.0201
RRIRFRPPRLPRPRPRPPYGPRP	-0.0784
RRIRKRPPRLPRPRPRPQLTPRP	0.14
RRIRTRPPRLPRPRPRPKGDPRP	0.00199
RRIRLRPPRLPRPRPRPKHKPRP	-0.103
RRIRGRPPRLPRPRPRPKSWPRP	0.925
RRIRARPPRLPRPRPRPCYEPRP	-0.109
RRIRCRPPRLPRPRPRPFNAPRP	-0.521
RRIRYRPPRLPRPRPRPSVRPRP	-0.301
RRIRRRPPRLPRPRPRPTHGPRP	1.37

Sequence	shrunken log2 fold change
RRIRQRPPRLPRPRPRPHFKPRP	-0.332
RRIRFRPPRLPRPRPRPNWTPRP	-0.00237
RRIRARPPRLPRPRPRPMLPPRP	0.425
RRIRFRPPRLPRPRPRPEWAPRP	0.398
RRIRTRPPRLPRPRPRPLADPRP	0.125
RRIRDRPPRLPRPRPRPMTMPRP	-0.00418
RRIRGRPPRLPRPRPRPWKYPRP	-0.115
RRIRTRPPRLPRPRPRPMGSPRP	-0.0908
RRIRCRPPRLPRPRPRPSGLPRP	0.0264
RRIRVRPPRLPRPRPRPTWTPRP	0.221
RRIRCRPPRLPRPRPRPIMIPRP	-0.566
RRIRHRPPRLPRPRPRPTCVPRP	0.134
RRIRTRPPRLPRPRPRPQHDPRP	-0.259
RRIRSRPPRLPRPRPRPGTYPRP	-1.16
RRIRWRPPRLPRPRPRPLGAPRP	0.483
RRIRFRPPRLPRPRPRPPRYPRP	0.246
RRIRGRPPRLPRPRPRPNQSPRP	0.17
RRIRNRPPRLPRPRPRPDQPPRP	0.00646
RRIRCRPPRLPRPRPRPLNPPRP	-0.185
RRIRFRPPRLPRPRPRPNFAPRP	-0.125

Sequence	shrunken log2 fold change
RRIRPRPPRLPRPRPRPFVMPRP	-0.201
RRIRARPPRLPRPRPRPESIPRP	-0.0955
RRIRLRPPRLPRPRPRPWINPRP	-0.43
RRIRIRPPRLPRPRPRPCEQPRP	0.0927
RRIRDRPPRLPRPRPRPPDLPRP	0.201
RRIRPRPPRLPRPRPRPIDMPRP	-0.0916
RRIRARPPRLPRPRPRPQVRPRP	-0.0207
RRIRVRPPRLPRPRPRPEEQPRP	0.0234
RRIRVRPPRLPRPRPRPHCPPRP	-0.173
RRIRGRPPRLPRPRPRPQSRPRP	0.328
RRIRIRPPRLPRPRPRPISWPRP	-0.392
RRIRGRPPRLPRPRPRPERRPRP	0.277
RRIRDRPPRLPRPRPRPGPCPRP	0.244
RRIRDRPPRLPRPRPRPEMSPRP	0.00748
RRIRDRPPRLPRPRPRPNSTPRP	-0.295
RRIRDRPPRLPRPRPRPHRYPRP	-0.21
RRIRVRPPRLPRPRPRPNHKPRP	-0.292
RRIRWRPPRLPRPRPRPHMKPRP	-0.204
RRIRIRPPRLPRPRPRPTAYPRP	-0.425
RRIRQRPPRLPRPRPRPTWRPRP	0.345
